In PMC10901774 (2024):
Each block holds one binder with its values, some of them ahead of it. Where no end group is shown, it is not given here. [ ]: non-standard residue; d: D form.

B5: recombinant CHIP (C-terminus of Hsc70-interacting protein) TPR domain (domain or fragment)
chain: GASPSAQELKEQGNRLFVGRKYPEAAACYGRAITRNPLVAVYYTNRALCYLKMQQHEQALADCRRALELDGQSVKAHFFLGQCQLEMESYDEAIANLQRAYSLAKEQRLNFGDDIPSALRIAKKKRWNSIEERR
modifications: biotinylated in the TR-FRET assay

Legend:
[1] = target: FAM-Hsp70 peptide (peptide model of the heat shock protein 70 C-terminus), L-form (UniProt P0DMV8, 5(6)-carboxyfluorescein (FAM)); assay: FRET
Sequence of FAM-Hsp70 peptide (peptide model of the heat shock protein 70 C-terminus), L-form (P0DMV8 whole entry, looked up, tested part not stated): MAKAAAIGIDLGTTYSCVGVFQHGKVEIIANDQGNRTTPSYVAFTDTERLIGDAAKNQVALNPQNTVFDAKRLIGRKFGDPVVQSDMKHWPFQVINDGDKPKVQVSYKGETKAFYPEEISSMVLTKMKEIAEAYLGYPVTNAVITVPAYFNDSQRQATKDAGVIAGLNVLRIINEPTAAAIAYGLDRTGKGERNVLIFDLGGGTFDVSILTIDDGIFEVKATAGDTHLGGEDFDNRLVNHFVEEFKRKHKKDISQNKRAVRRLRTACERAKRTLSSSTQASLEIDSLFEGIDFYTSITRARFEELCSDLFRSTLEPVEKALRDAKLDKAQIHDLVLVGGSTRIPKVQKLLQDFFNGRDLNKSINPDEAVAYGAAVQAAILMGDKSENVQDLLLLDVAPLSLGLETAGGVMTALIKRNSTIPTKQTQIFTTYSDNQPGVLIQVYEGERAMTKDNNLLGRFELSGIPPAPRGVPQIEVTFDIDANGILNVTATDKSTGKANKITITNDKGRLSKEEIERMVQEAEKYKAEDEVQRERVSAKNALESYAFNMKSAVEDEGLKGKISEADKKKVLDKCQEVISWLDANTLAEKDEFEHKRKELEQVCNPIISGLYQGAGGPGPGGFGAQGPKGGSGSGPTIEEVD

[2] = target: FAM-Hsp70 peptide (peptide model of the heat shock protein 70 C-terminus), D-form (UniProt P0DMV8, all residues D-amino acids; 5(6)-carboxyfluorescein (FAM)); assay: FRET
Sequence of FAM-Hsp70 peptide (peptide model of the heat shock protein 70 C-terminus), D-form (P0DMV8 whole entry, looked up, tested part not stated): as above

[3] = target: p53-derived model peptide, FAM-labelled (L-form) (UniProt P04637, 5(6)-carboxyfluorescein (FAM)); assay: FRET
Sequence of p53-derived model peptide, FAM-labelled (L-form) (P04637 whole entry, looked up, tested part not stated): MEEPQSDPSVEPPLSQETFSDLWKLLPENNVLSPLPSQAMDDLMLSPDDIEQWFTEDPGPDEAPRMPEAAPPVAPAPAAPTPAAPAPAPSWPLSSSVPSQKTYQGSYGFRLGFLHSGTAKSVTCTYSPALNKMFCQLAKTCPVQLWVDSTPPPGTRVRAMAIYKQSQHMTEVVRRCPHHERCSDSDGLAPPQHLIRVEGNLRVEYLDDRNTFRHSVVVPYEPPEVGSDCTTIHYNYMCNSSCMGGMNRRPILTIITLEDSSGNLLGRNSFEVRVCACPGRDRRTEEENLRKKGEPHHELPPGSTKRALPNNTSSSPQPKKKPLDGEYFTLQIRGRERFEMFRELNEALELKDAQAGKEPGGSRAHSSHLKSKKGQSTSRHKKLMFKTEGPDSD

[4] = target: p53-derived model peptide, FAM-labelled (D-form) (UniProt P04637, all residues D-amino acids; 5(6)-carboxyfluorescein (FAM)); assay: FRET
Sequence of p53-derived model peptide, FAM-labelled (D-form) (P04637 whole entry, looked up, tested part not stated): as above

[5] = target: B5; assay: FP

Kd [1]: 3800 nM
B1: synthetic L-CHIP (TPR domain) (domain or fragment)
chain: SPSAQELKEQGNRLFVGRKYPEAAACYGRAITRNPLVAVYYTNRALCYLKMQQHEQALADCRRALELDGQSVKAHFFLGQCQLEMESYDEAIANLQRAYSLAKEQRLNFGDDIPSALRIAKKKRWNSIEERR
modifications: biotin at the N-terminus through a PEG12 linker

Kd [2]: 3500 nM
B2: synthetic D-CHIP (TPR domain) (domain or fragment)
chain: SPSAQELKEQGNRLFVGRKYPEAAACYGRAITRNPLVAVYYTNRALCYLKMQQHEQALADCRRALELDGQSVKAHFFLGQCQLEMESYDEAIANLQRAYSLAKEQRLNFGDDIPSALRIAKKKRWNSIEERR
modifications: all residues D-amino acids; biotin at the N-terminus through a PEG12 linker

Kd [4]: 13 nM
B4: synthetic D-MDM2 (domain or fragment)
chain: SQIPASEQETLVRPKPLLLKLLKSVGAQKDTYTMKEVLFYLGQYIMTKRLYDEKQQHIVYCSNDLLGDLFGVPSFSVKEHRKIYTMIYRNLVVVN
modifications: all residues D-amino acids; biotin at the N-terminus through a PEG12 linker

Second part, the binder before the results:

B3: recombinant MDM2 (mouse double minute 2 homolog) (domain or fragment)
chain: SQIPASEQETLVRPKPLLLKLLKSVGAQKDTYTMKEVLFYLGQYIMTKRLYDEKQQHIVYCSNDLLGDLFGVPSFSVKEHRKIYTMIYRNLVVVN
modifications: biotinylated in the TR-FRET assay
Kd [3]: 10 nM

Binder: [dP][dW][dW][dE][dC][dL][dS][dQ][dA][dD][dD][dC][dD][dF][dR] (staple (positions not given here)) [D-H202]
IC50 [5]: 1230 nM

Binder: B5
Kd [1]: 4000 nM
